This is an account of results in IntAct's records for PubMed 21730963.

First the molecules themselves.
B1: Serine/threonine-protein kinase SCH9 (Saccharomyces cerevisiae), P11792 (parent)
chain: MMNFFTSKSSNQDTGFSSQHQHPNGQNNGNNNSSTAGNDNGYPCKLVSSGPCASSNNGALFTNFTLQTATPTTAISQDLYAMGTTGITSENALFQMKSMNNGISSVNNNNSNTPTIITTSQEETNAGNVHGDTGGNSLQNSEDDNFSSSSTTKCLLSSTSSLSINQREAAAAAYGPDTDIPRGKLEVTIIEARDLVTRSKDSQPYVVCTFESSEFISNGPESLGAINNNNNNNNNNQHNQNQHINNNNENTNPDAASQHHNNNSGWNGSQLPSIKEHLKKKPLYTHRSSSQLDQLNSCSSVTDPSKRSSNSSSGSSNGPKNDSSHPIWHHKTTFDVLGSHSELDISVYDAAHDHMFLGQVRLYPMIHNLAHASQHQWHSLKPRVIDEVVSGDILIKWTYKQTKKRHYGPQDFEVLRLLGKGTFGQVYQVKKKDTQRIYAMKVLSKKVIVKKNEIAHTIGERNILVTTASKSSPFIVGLKFSFQTPTDLYLVTDYMSGGELFWHLQKEGRFSEDRAKFYIAELVLALEHLHDNDIVYRDLKPENILLDANGNIALCDFGLSKADLKDRTNTFCGTTEYLAPELLLDETGYTKMVDFWSLGVLIFEMCCGWSPFFAENNQKMYQKIAFGKVKFPRDVLSQEGRSFVKGLLNRNPKHRLGAIDDGRELRAHPFFADIDWEALKQKKIPPPFKPHLVSETDTSNFDPEFTTASTSYMNKHQPMMTATPLSPAMQAKFAGFTFVDESAIDEHVNNNRKFLQNSYFMEPGSFIPGNPNLPPDEDVIDDDGDEDINDGFNQEKNMNNSHSQMDFDGDQHMDDEFVSGRFEI
partner: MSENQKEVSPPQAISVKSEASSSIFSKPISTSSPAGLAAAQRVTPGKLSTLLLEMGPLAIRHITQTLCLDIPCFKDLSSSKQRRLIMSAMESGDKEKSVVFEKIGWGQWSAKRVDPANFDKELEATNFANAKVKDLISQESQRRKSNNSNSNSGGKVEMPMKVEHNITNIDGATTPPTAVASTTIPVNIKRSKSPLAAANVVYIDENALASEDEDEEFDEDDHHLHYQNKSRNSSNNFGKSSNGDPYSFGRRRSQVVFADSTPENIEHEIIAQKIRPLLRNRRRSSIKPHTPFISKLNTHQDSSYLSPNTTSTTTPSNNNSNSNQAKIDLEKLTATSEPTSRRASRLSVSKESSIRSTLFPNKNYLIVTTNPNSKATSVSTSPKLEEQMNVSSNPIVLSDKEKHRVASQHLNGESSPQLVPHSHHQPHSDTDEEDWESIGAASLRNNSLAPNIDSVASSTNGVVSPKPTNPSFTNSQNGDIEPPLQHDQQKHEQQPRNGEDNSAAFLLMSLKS
B2: Transcriptional regulatory protein TOD6 (Saccharomyces cerevisiae), P34219 (parent)
chain: MTLPKLSSVSVSSGHVSANSHGFSILSKHPHPNNLVHSHSLSHTNAKSHLPISSTSTKENSTNKEEAESLKKNNPSSWDPSDDIKLRHLKEIKNLGWKEIAHHFPNRTPNACQFRWRRLKSGNLKSNKTAVIDINKLFGVYATGDATPSAGTPSAEEAVKEEAVEDEDITAGSSAIEDSPPDFKPLVKPKYMDRKLITQRSTSTFSDHEPQHTKPRKLFVKPRSFSHSITTNTPNVKTAQQTNLSLYNTTSAKTNKAVNSNDYENIGLVPKIIIRSRRNSFIPSTQIPHSTTKTRKNSHSVISSRRSSFNMMHSRRSSFNSHAPTEPISRRASLVVSPYMSPRRLSTSQSVHYHPQHQYYLNPIASPNCKTDHANDKITHTRTFLDMQKFANKHPWSREDDEVLLNNTKDKQNHLSPLEISIVLPNNRSELEIQQRMDYLKRKGRVSGFHTNEGCKDEEEEDDIDPLHKENGINTPSQQSQNYGMLEAKHDNPKSSELSSMTSANDIRNEQDELPGINSIFKNIF
partner: B1 chain
B3: Serine/threonine-protein kinase SCH9 (Saccharomyces cerevisiae), P11792 (parent)
chain: B1 chain
partner: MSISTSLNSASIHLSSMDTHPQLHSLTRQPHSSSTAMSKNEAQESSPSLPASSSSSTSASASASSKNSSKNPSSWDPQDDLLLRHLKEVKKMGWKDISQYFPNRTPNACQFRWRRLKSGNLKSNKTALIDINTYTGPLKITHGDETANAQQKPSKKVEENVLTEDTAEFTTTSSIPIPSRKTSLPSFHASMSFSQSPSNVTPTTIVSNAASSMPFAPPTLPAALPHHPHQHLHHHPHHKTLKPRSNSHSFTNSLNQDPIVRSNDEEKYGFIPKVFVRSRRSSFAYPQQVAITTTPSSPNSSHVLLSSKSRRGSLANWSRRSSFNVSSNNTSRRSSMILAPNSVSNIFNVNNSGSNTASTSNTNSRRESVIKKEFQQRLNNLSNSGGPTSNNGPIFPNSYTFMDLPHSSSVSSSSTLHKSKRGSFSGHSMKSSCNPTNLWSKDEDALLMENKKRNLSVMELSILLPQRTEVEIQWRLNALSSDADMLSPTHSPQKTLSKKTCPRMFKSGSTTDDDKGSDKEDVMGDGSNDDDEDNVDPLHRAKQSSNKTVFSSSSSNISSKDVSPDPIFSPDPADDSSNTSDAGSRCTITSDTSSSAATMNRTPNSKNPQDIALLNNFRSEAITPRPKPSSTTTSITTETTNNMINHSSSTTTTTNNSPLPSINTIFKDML
B4: Transcriptional regulatory protein DOT6 (Saccharomyces cerevisiae), P40059 (parent)
chain: B3 partner
partner: B1 chain
B5: Serine/threonine-protein kinase SCH9 (Saccharomyces cerevisiae), P11792 (parent)
chain: B1 chain
partner: B2 chain

Variants of B1 are the subject of one test. The conditions noted are these: with stb3_yeast STB3, Q12427.
For the variant T6E, the “effect of a mutation on the interaction” value was “increasing interaction”.

In the next test the parent is B2. The conditions noted are these: with sch9_yeast SCH9, P11792.
Turning to L6A, the “effect of a mutation on the interaction” value was “decreasing interaction”.

In the next test the parent is B3. The conditions noted are these: with dot6_yeast DOT6, P40059.
With T6E, the “effect of a mutation on the interaction” value is listed as “increasing interaction”.

In the next test the parent is B4. The conditions noted are these: with sch9_yeast SCH9, P11792.
Consider T5A, for which the “effect of a mutation on the interaction” value was “decreasing interaction”.

The variants in another test derive from B5. To be noted: with tod6_yeast TOD6, P34219.
Take T6E: the “effect of a mutation on the interaction” value was “increasing interaction”.
